The results in this text go back to patent KR20200019669A.

Assay [1] deals with his 태그가 부착된 재조합 인간 CD38 (recombinant human CD38 extracellular domain, His-tagged) (human) (UniProt P28907). Put plainly: ForteBio (BLI), 1:1 fit. In general terms: BLI is a label-free optical method that tracks binding on a fibre tip over time.
Assay [2] has as its target 인간 CD38 (human CD38, full length, on cells) (human) (UniProt P28907). Put plainly: cell-based or functional assay.

As a reminder, the Kd is the equilibrium constant for the complex coming apart. With IB4 (antibody), in assay [1], the Kd is 9 nM.

Take 다라투무맙 (daratumumab) (antibody): the CD38 시클라제 활성 억제 in assay [2] is 70%.
